Data reported in doi:10.1101/2024.06.27.600884.

Columns and labels:
Experiment in all cases: EMSA
Myc-TRF2ΔBΔHinge (RRL) = Myc-TRF2ΔBΔHinge (RRL) (UniProt Q15554 87-287+484-542, internal_change)
Myc-TRF2ΔBΔTRFH (RRL) = Myc-TRF2ΔBΔTRFH (RRL) (UniProt Q15554 288-542)
TRF2ΔBΔHinge = TRF2ΔBΔHinge (UniProt Q15554 87-287+484-542, internal_change)
TRF2ΔB-F59A = TRF2ΔB-F59A (UniProt Q15554 87-542, F101A)
Myc-TRF2ΔB (RRL) = Myc-TRF2ΔB (RRL) (UniProt Q15554 87-542)
TRF2ΔBΔTRFH = TRF2ΔBΔTRFH (UniProt Q15554 288-542)
TRF2ΔB = TRF2ΔB (UniProt Q15554 87-542)

Measured: binding result

B1: 4-repeat telomeric probe (dsDNA)
DNA 1: GTACCCGGGGATCGTCGACTCTAGAGGGGCCCTAACCCTAACCCTAACCCTAACCCGGGCTCGAATTCGATCCTCTAGAGTCGACCTGCAGGCATGCAAGCU
DNA 2: AGCTTGCATGCCTGCAGGTCGACTCTAGAGGATCGAATTCGAGCCCGGGTTAGGGTTAGGGTTAGGGTTAGGGCCCCTCTAGAGTCGACGATCCCCGGGUAC
modifications: Cy5.5-dUTP incorporated by Klenow fill-in (U near both 3' ends)
binds: all assays above
